From patent US20230265151A1, “GIP/GLP1 CO-AGONIST COMPOUNDS” (priority 2020, published 2023)

B1: Y-Aib-EGT-αMeF(2F)-TSD-4Pal-SI-αMeL-LD-Orn-K((2-[2-(2-Amino-ethoxy)-ethoxy]-acetyl)2-(γ-Glu)-CO-(CH2)12-CO2H)AQ-Aib-EFI-(D-Glu)-αMeY-LIEGGP S SGAPPP … (peptide)
peptide: YXEGTXTSDXSIXLDXKAQXEFIXXLIEGGPSSGAPPPSK
modifications: Aib2, αMeF(2F)6, 4Pal10, αMeL13, Orn16, Aib20, D-Glu24, αMeY25; acylated K17, K40 (groups as in name); C-terminal amide
B2: Y-Aib-EGT-αMeF(2F)-TSD-4Pal-SI-αMeL-LD-Orn-K((2-[2-(2-Amino-ethoxy)-ethoxy]-acetyl)-(γ-Glu)-(4-(4-tert-butylphenyl)butanoyl))AQ-Aib-EFI-(D-Glu)-αMeY-LIEGGPSSGAP … (peptide)
peptide: YXEGTXTSDXSIXLDXKAQXEFIXXLIEGGPSSGAPPPSK
modifications: Aib2, αMeF(2F)6, 4Pal10, αMeL13, Orn16, Aib20, D-Glu24, αMeY25; acylated K17, K40 (groups as in name); C-terminal amide
B3: Y-Aib-EGT-αMeF(2F)-TSD-4Pal-SI-αMeL-LD-Orn-K((2-[2-(2-Amino-ethoxy)-ethoxy]-acetyl)2-(γ-Glu)-(4-(4-tert-butylphenyl)butanoyl))AQ-Aib-EFI-(D-Glu)-αMeY-LIEGGPSSGA … (peptide)
peptide: YXEGTXTSDXSIXLDXKAQXEFIXXLIEGGPSSGAPPPSK
modifications: Aib2, αMeF(2F)6, 4Pal10, αMeL13, Orn16, Aib20, D-Glu24, αMeY25; acylated K17, K40 (groups as in name); C-terminal amide
B4: Y-Aib-EGT-αMeF(2F)-TSD-4Pal-SI-αMeL-LD-Orn-IAQ-Aib-K((2-[2-(2-Amino-ethoxy)-ethoxy]-acetyl)2-(γ-Glu)-(4-(4-tert-butylphenyl)butanoyl))FI-(D-Glu)-αMeY-LIEGGPSSGA … (peptide)
peptide: YXEGTXTSDXSIXLDXIAQXKFIXXLIEGGPSSGAPPPSK
modifications: Aib2, αMeF(2F)6, 4Pal10, αMeL13, Orn16, Aib20, D-Glu24, αMeY25; acylated K21, K40 (groups as in name); C-terminal amide
B5: Y-Aib-EGT-αMeF(2F)-TSD-4Pal-SI-αMeL-LD-Orn-IAQ-Aib-K((2-[2-(2-Amino-ethoxy)-ethoxy]-acetyl)2-(γ-Glu)-CO-(CH2)12-CO2H)FI-(D-Glu)-αMeY-LIEGGPSSGAPPPSK((2-[2-(2-Am … (peptide)
peptide: YXEGTXTSDXSIXLDXIAQXKFIXXLIEGGPSSGAPPPSK
modifications: Aib2, αMeF(2F)6, 4Pal10, αMeL13, Orn16, Aib20, D-Glu24, αMeY25; acylated K21, K40 (groups as in name); C-terminal amide
B6: Y-Aib-EGT-αMeF(2F)-TSD-4Pal-SI-αMeL-LD-Orn-IAQ-Aib-K((2-[2-(2-Amino-ethoxy)-ethoxy]-acetyl)2-CO-(CH2)12-CO2H)FI-(D-Glu)-αMeY-LIEGGPSSGAPPP … (peptide)
peptide: YXEGTXTSDXSIXLDXIAQXKFIXXLIEGGPSSGAPPPSK
modifications: Aib2, αMeF(2F)6, 4Pal10, αMeL13, Orn16, Aib20, D-Glu24, αMeY25; acylated K21, K40 (groups as in name); C-terminal amide
B7: Y-Aib-EGT-αMeF(2F)-TSD-4Pal-SI-αMeL-LD-Orn-K((2-[2-(2-Amino-ethoxy)-ethoxy]-acetyl)2-(γ-Glu)-CO-(CH2)10-CH3)AQ-Aib-EFI-(D-Glu)-αMeY-LIEGGP S SGAPPP … (peptide)
peptide: YXEGTXTSDXSIXLDXKAQXEFIXXLIEGGPSSGAPPPSK
modifications: Aib2, αMeF(2F)6, 4Pal10, αMeL13, Orn16, Aib20, D-Glu24, αMeY25; acylated K17, K40 (groups as in name); C-terminal amide
B8: Y-Aib-EGT-αMeF(2F)-TSD-4Pal-SI-αMeL-LD-Orn-K((2-[2-(2-Amino-ethoxy)-ethoxy]-acetyl)2-(γ-Glu)-CO-(CH2)14-CH3)AQ-Aib-EFI-(D-Glu)-αMeY-LIEGGPSSGAPPPSK((2-[2-(2-Ami … (peptide)
peptide: YXEGTXTSDXSIXLDXKAQXEFIXXLIEGGPSSGAPPPSK
modifications: Aib2, αMeF(2F)6, 4Pal10, αMeL13, Orn16, Aib20, D-Glu24, αMeY25; acylated K17, K40 (groups as in name); C-terminal amide
B9: Y-Aib-EGT-αMeF(2F)-TSD-4Pal-SI-αMeL-LD-Orn-K((2-[2-(2-Amino-ethoxy)-ethoxy]-acetyl)-(γ-Glu)-CO-(CH2)12-CO2H)AQ-Aib-EFI-(D-Glu)-αMeY-LIEGGK((2-[2-(2-Amino-ethoxy … (peptide)
peptide: YXEGTXTSDXSIXLDXKAQXEFIXXLIEGGKSSGAPPPS
modifications: Aib2, αMeF(2F)6, 4Pal10, αMeL13, Orn16, Aib20, D-Glu24, αMeY25; acylated K17, K31 (groups as in name); C-terminal amide
B10: Y-Aib-EGT-αMeF(2F)-TSD-4Pal-SI-αMeL-LD-Orn-K((2-[2-(2-Amino-ethoxy)-ethoxy]-acetyl)3-(γ-Glu)-CO-(CH2)14-CH3)AQ-Aib-EFI-(D-Glu)-αMeY-LIEGGK((2-[2-(2-Amino-ethoxy … (peptide)
peptide: YXEGTXTSDXSIXLDXKAQXEFIXXLIEGGKSSGAPPPS
modifications: Aib2, αMeF(2F)6, 4Pal10, αMeL13, Orn16, Aib20, D-Glu24, αMeY25; acylated K17, K31 (groups as in name); C-terminal amide
B11: Y-Aib-EGT-αMeF(2F)-TSD-4Pal-SI-αMeL-LD-Orn-K((εK)-(2-[2-(2-Amino-ethoxy)-ethoxy]-acetyl)-(γ-Glu)-CO-(CH2)12-CO2H)AQ-Aib-EFI-(D-Glu)-αMeY-LIEGGK((εK)-(2-[2-(2-Am … (peptide)
peptide: YXEGTXTSDXSIXLDXKAQXEFIXXLIEGGKSSGAPPPS
modifications: Aib2, αMeF(2F)6, 4Pal10, αMeL13, Orn16, Aib20, D-Glu24, αMeY25; acylated K17, K31 (groups as in name); C-terminal amide
B12: Y-Aib-EGT-αMeF-TSD-4Pal-SI-αMeL-LD-Orn-K((2-[2-(2-Amino-ethoxy)-ethoxy]-acetyl)2-(γ-Glu)-CO-(CH2)12-CO2H)AQ-Aib-EFI-(D-Glu)-αMeY-LIEGGK((2-[2-(2-Amino-ethoxy)-e … (peptide)
peptide: YXEGTXTSDXSIXLDXKAQXEFIXXLIEGGKSSGAPPPS
modifications: Aib2, αMeF6, 4Pal10, αMeL13, Orn16, Aib20, D-Glu24, αMeY25; acylated K17, K31 (groups as in name); C-terminal amide
B13: Y-Aib-EGT-αMeF(2F)-TSD-4Pal-SI-αMeL-LD-Orn-K((εK)-(γ-Glu)-(γ-Glu)-CO-(CH2)12-CO2H)AQ-Aib-EFI-(D-Glu)-αMeY-LIEGGK((εK)-(γ-Glu)-(γ-Glu)-CO-(CH2)12-CO2H)SSGAPPPS-N … (peptide)
peptide: YXEGTXTSDXSIXLDXKAQXEFIXXLIEGGKSSGAPPPS
modifications: Aib2, αMeF(2F)6, 4Pal10, αMeL13, Orn16, Aib20, D-Glu24, αMeY25; acylated K17, K31 (groups as in name); C-terminal amide
B14: Y-Aib-EGT-αMeF(2F)-TSD-4Pal-SI-αMeL-LD-Orn-K((2-[2-(2-Amino-ethoxy)-ethoxy]-acetyl)2-CO-(CH2)12-CO2H)AQ-Aib-EFI-(D-Glu)-αMeY-LIK((2-[2-(2-Amino-ethoxy)-ethoxy]- … (peptide)
peptide: YXEGTXTSDXSIXLDXKAQXEFIXXLIKGGPSSGAPPPS
modifications: Aib2, αMeF(2F)6, 4Pal10, αMeL13, Orn16, Aib20, D-Glu24, αMeY25; acylated K17, K28 (groups as in name); C-terminal amide
B15: Y-Aib-EGT-αMeF(2F)-TSD-4Pal-SI-αMeL-LD-Orn-K((2-[2-(2-Amino-ethoxy)-ethoxy]-acetyl)-(γ-Glu)-CO-(CH2)10-CH3)AQ-Aib-EFI-(D-Glu)-αMeY-LIEGGK((2-[2-(2-Amino-ethoxy) … (peptide)
peptide: YXEGTXTSDXSIXLDXKAQXEFIXXLIEGGKSSGAPPPS
modifications: Aib2, αMeF(2F)6, 4Pal10, αMeL13, Orn16, Aib20, D-Glu24, αMeY25; acylated K17, K31 (groups as in name); C-terminal amide
B16: Y-Aib-EGT-αMeF(2F)-TSD-4Pal-SI-αMeL-LD-Orn-K((2-[2-(2-Amino-ethoxy)-ethoxy]-acetyl)-(γ-Glu)-(10-(4-carboxyphenoxy)decanoyl))AQ-Aib-EFI-(D-Glu)-αMeY-LIEGGK((2-[2 … (peptide)
peptide: YXEGTXTSDXSIXLDXKAQXEFIXXLIEGGKSSGAPPPS
modifications: Aib2, αMeF(2F)6, 4Pal10, αMeL13, Orn16, Aib20, D-Glu24, αMeY25; acylated K17, K31 (groups as in name); C-terminal amide
B17: Y-Aib-EGT-αMeF(2F)-TSD-4Pal-SI-αMeL-LD-Orn-K((2-[2-(2-Amino-ethoxy)-ethoxy]-acetyl)2-(γ-Glu)-(4-(4-tert-butylphenyl)butanoyl))AQ-Aib-K((2-[2-(2-Amino-ethoxy)-et … (peptide)
peptide: YXEGTXTSDXSIXLDXKAQXKFIXXLIEGGPSSGAPPPS
modifications: Aib2, αMeF(2F)6, 4Pal10, αMeL13, Orn16, Aib20, D-Glu24, αMeY25; acylated K17, K21 (groups as in name); C-terminal amide
B18: Y-Aib-EGT-αMeF(2F)-TSD-4Pal-SI-αMeL-LD-Orn-K((2-[2-(2-Amino-ethoxy)-ethoxy]-acetyl)-(εK)-(γ-Glu)-CO-(CH2)12-CO2H)AQ-Aib-EFI-(D-Glu)-αMeY-LIEGGK((2-[2-(2-Amino-e … (peptide)
peptide: YXEGTXTSDXSIXLDXKAQXEFIXXLIEGGKSSGAPPPS
modifications: Aib2, αMeF(2F)6, 4Pal10, αMeL13, Orn16, Aib20, D-Glu24, αMeY25; acylated K17, K31 (groups as in name); C-terminal amide
B19: Y-Aib-EGT-αMeF(2F)-TSD-4Pal-SI-αMeL-LD-Orn-K((2-[2-(2-Amino-ethoxy)-ethoxy]-acetyl)2-(γ-Glu)-CO-(CH2)10-CH3)AQ-Aib-K((2-[2-(2-Amino-ethoxy)-ethoxy]-acetyl)2-(γ- … (peptide)
peptide: YXEGTXTSDXSIXLDXKAQXKFIXXLIEGGPSSGAPPPS
modifications: Aib2, αMeF(2F)6, 4Pal10, αMeL13, Orn16, Aib20, D-Glu24, αMeY25; acylated K17, K21 (groups as in name); C-terminal amide
B20: Y-Aib-EGT-αMeF(2F)-TSD-4Pal-SI-αMeL-LD-Orn-IAQ-Aib-K((2-[2-(2-Amino-ethoxy)-ethoxy]-acetyl)2-(γ-Glu)-(4-(4-tert-butylphenyl)butanoyl))FI-(D-Glu)-αMeY-LIK((2-[2- … (peptide)
peptide: YXEGTXTSDXSIXLDXIAQXKFIXXLIKGGPSSGAPPPS
modifications: Aib2, αMeF(2F)6, 4Pal10, αMeL13, Orn16, Aib20, D-Glu24, αMeY25; acylated K21, K28 (groups as in name); C-terminal amide
B21: Y-Aib-EGT-αMeF(2F)-TSDK((2-[2-(2-Amino-ethoxy)-ethoxy]-acetyl)2-(γ-Glu)-CO-(CH2)14-CH3)SI-αMeL-LD-Orn-K((2-[2-(2-Amino-ethoxy)-ethoxy]-acetyl)2-(γ-Glu)-CO-(CH2) … (peptide)
peptide: YXEGTXTSDKSIXLDXKAQXEFIXXLIEGGPSSGAPPPS
modifications: Aib2, αMeF(2F)6, αMeL13, Orn16, Aib20, D-Glu24, αMeY25; acylated K10, K17 (groups as in name); C-terminal amide
B22: Y-Aib-EGT-αMeF(2F)-TSD-4Pal-SI-αMeL-LD-Orn-K((2-[2-(2-Amino-ethoxy)-ethoxy]-acetyl)2-(γ-Glu)-(4-(4-tert-butylphenyl)butanoyl))AQ-Aib-EFI-(D-Glu)-αMeY-LIK((2-[2- … (peptide)
peptide: YXEGTXTSDXSIXLDXKAQXEFIXXLIKGGPSSGAPPPS
modifications: Aib2, αMeF(2F)6, 4Pal10, αMeL13, Orn16, Aib20, D-Glu24, αMeY25; acylated K17, K28 (groups as in name); C-terminal amide
B23: Y-Aib-EGT-αMeF(2F)-TSD-4Pal-SI-αMeL-LD-Orn-K((2-[2-(2-Amino-ethoxy)-ethoxy]-acetyl)-(γ-Glu)-(4-(4-tert-butylphenyl)butanoyl))AQ-Aib-EFI-(D-Glu)-αMeY-LIK((2-[2-( … (peptide)
peptide: YXEGTXTSDXSIXLDXKAQXEFIXXLIKGGPSSGAPPPS
modifications: Aib2, αMeF(2F)6, 4Pal10, αMeL13, Orn16, Aib20, D-Glu24, αMeY25; acylated K17, K28 (groups as in name); C-terminal amide
B24: Y-Aib-EGT-αMeF(2F)-TSD-4Pal-SI-αMeL-LD-Orn-IAQ-Aib-K((2-[2-(2-Amino-ethoxy)-ethoxy]-acetyl)2-(γ-Glu)-CO-(CH2)12-CO2H)FI-(D-Glu)-αMeY-LIK((2-[2-(2-Amino-ethoxy)- … (peptide)
peptide: YXEGTXTSDXSIXLDXIAQXKFIXXLIKGGPSSGAPPPS
modifications: Aib2, αMeF(2F)6, 4Pal10, αMeL13, Orn16, Aib20, D-Glu24, αMeY25; acylated K21, K28 (groups as in name); C-terminal amide

Molecular target: human glucagon receptor (human, UniProt P47871 26-477)
Assay: cell-based or functional assay

Row | Binder | cAMP EC50 (1.0% HSA)
1 | B1 | > 9.95 µM
2 | B2 | > 9.95 µM
3 | B3 | > 9.95 µM
4 | B4 | > 9.95 µM
5 | B5 | > 9.95 µM
6 | B6 | > 9.95 µM
7 | B7 | > 9.95 µM
8 | B8 | > 9.95 µM
9 | B9 | > 9.95 µM
10 | B10 | > 9.95 µM
11 | B11 | > 9.95 µM
12 | B12 | > 9.95 µM
13 | B13 | > 9.95 µM
14 | B14 | > 9.95 µM
15 | B15 | > 9.95 µM
16 | B16 | > 9.95 µM
17 | B17 | > 9.95 µM
18 | B18 | > 9.95 µM
19 | B19 | > 9.95 µM
20 | B20 | > 9.95 µM
21 | B21 | > 9.95 µM
22 | B22 | > 9.95 µM
23 | B23 | > 9.95 µM
24 | B24 | > 9.95 µM
